B1: library; numbered along this chain (parent)
chain: MRKPRAAVGSGHRKQAASQEGRQKHAKNNSQAKPSACDGLARQPEEVVLQASVSSYHLFRDVAEVTAFRGSLLSWYDQEKRDLPWRRRAEDEMDLDRRAYAVWVSEVMLQQTQVATVINYYTGWMQKWPTLQDLASASLEEVNQLWAGLGYYSRGRRLQEGARKVVEELGGHMPRTAETLQQLLPGVGRYTAGAIASIAFGQATGVVDGNVARVLCRVRAIGADPSSTLVSQQLWGLAQQLVDPARPGDFNQAAMELGATVCTPQRPLCSQCPVESLCRARQRVEQEQLLASGSLSGSPDVEECAPNTGQCHLCLPPSEPWDQTLGVVNFPRKASRKPPREESSATCVLEQPGALGAQILLVQRPNSGLLAGLWEFPSVTWEPSEQLQRKALLQELQRWAGPLPATHLRHLGEVVHTFSHIKLTYQVYGLALEGQTPVTTVPPGARWLTQEEFHTAAVSTAMKKVFRVYQGQQPGTCMGSKRSQVSSPCSRKKPRMGQQVLDNFFRSHISTDAHSLNSAAQ

Variants of: B1
Assay: 8OG:A repair function score (normalized; synonymous = 0, nonsense = -1) (normalized log-likelihood score); higher = more repair activity (WT-like)
Settings: with 8OG:A DNA repair reporter (GFP) in HEK-293 MUTYH KO cells
Procedure, shortened: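 With 10 pg/ml doxycycline, MUTYH knockout HEK-293 cells carrying lentiviral MUTYH cDNA NNN codon-scan libraries were co-transfected with mCherry and an 8OG:A GFP repair reporter. Viable mCherry+ cells were sorted into GFP+ (repair) and GFP− bins at 72 h, three replicates per tile, and tile amplicons were sequenced. Per-tile Rosace fitness scores were then normalized into a repair function score anchored on synonymous and nonsense distributions. Medians were fixed at 0 for synonymous and -1 for nonsense, excluding variants under 300 counts per million at the start.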

Variant	8OG:A repair function score
N143E	-0.196
G497D	-0.0474
A51G	-0.0113
L95S	-0.00398
V438R	0.11
A223Q	-0.0573
L325E	-0.08
P339K	-0.0247
D512H	-0.0208
M173D	-0.926
Y100N	-1.17
T346C	0.0316
K493E	0.0199
T449A	0.0699
H57V	-0.613
F376P	-1.02
Q499R	-0.0243
R86W	-1.23
Q265K	-0.0319
F418D	-1.06
G471Q	0.00928
Q473T	-0.00244
G444A	-0.284
D300L	-0.189

Variant	8OG:A repair function score
N119E	-0.069
G236V	-0.0226
L241H	-1.01
A220D	-0.821
V327H	-0.532
R81Q	-0.483
P402S	-0.138
M462C	-0.0756
P264W	-0.113
G497L	-0.0147
S318R	-0.0645
T406Y	-0.265
P404T	-0.55
R157P	-1.11
Y56T	-0.011
P474W	-0.0167
Q233Y	0.0243
L95D	0.00648
R2N	0.108
L72N	-2.41
A41T	0.0139
A212E	0.196
Q144P	-0.282
Q498D	0.00936

Variant	8OG:A repair function score
E285T	-0.0287
V218M	0.0454
V65Q	-0.0644
L169A	-0.177
G372D	-0.324
A6K	-0.0201
V438Q	0.187
G372C	-0.263
V458I	-0.0811
N503H	-0.0815
L313Y	-0.104
S318P	-0.26
Q386T	-0.191
G372N	-0.294
L241G	-0.827
A391I	0.114
G326Q	-0.123
E275I	-0.0114
Q132M	-0.0607
K464G	-0.315
E167R	-0.0147
S296T	-0.0451
P442E	-0.177
M108I	-0.761

Variant	8OG:A repair function score
L229Y	0.0445
L149A	-0.323
L448C	-0.0248
G368L	-0.532
V211M	-0.251
V102E	-1.11
G309H	0.0104
A51S	0.0659
D243H	-0.31
G161W	-1.19
C272M	-1.19
N210A	-0.876
P352G	-0.0543
A519P	0.0175
G248H	-0.883
I221E	-0.989
N366W	-0.042
N143D	-0.456
T130H	-0.115
Q182R	-0.0127
W124T	-0.869
G186E	-0.989
A135H	-0.353
R467S	-0.0606

Variant	8OG:A repair function score
R42D	0.0284
Q43W	-0.0384
S276L	-0.0125
A354Y	-0.11
N517C	-0.0105
G148A	-0.564
V117G	-0.408
L369V	-0.297
T122W	-0.16
H454M	-0.158
P247E	-0.987
L290G	-0.0171
V48T	-0.0154
M173H	-0.672
Q50R	0.0284
L145Y	0.0659
V465E	-1.42
G401F	-0.16
K164S	-0.168
G372A	-0.461
S153G	-0.237
C269L	-1.21
V465L	-0.379
G293K	-0.0447

Variant	8OG:A repair function score
A196P	-1.11
L237Q	-0.281
A238V	0.0238
C477V	-0.0256
S298N	-0.0213
S294V	-0.0111
L393K	-0.0987
Q113L	-0.239
K164N	-0.37
P273C	-0.28
L355K	-0.0816
N517V	-0.00815
Q265N	-0.0302
R156E	-0.319
V362I	-0.125
N119V	0.0134
L180G	-0.785
L73K	-0.453
L403C	0.158
P34R	0.0769
F418S	-0.474
A220W	-0.836
F466Y	0.00857
L131F	0.00215

Variant	8OG:A repair function score
G293E	-0.0308
Q351A	-0.00592
G326K	-0.179
S515I	-0.0207
N503M	-9.05e-05
A135R	-0.0784
L158Y	-1.09
S335E	-0.0481
P488W	-0.00344
G475K	0.0247
F505Y	0.00392
E303H	-0.102
A194W	-1.05
E395P	-0.546
K493T	0.0143
L432D	-0.57
R69Q	-0.519
C347H	-1.55
S54N	-0.00348
K127L	-0.0156
L295H	-0.0248
A196T	-0.342
R60W	-0.564

Reference: the supplement of paper PMC11908140
